This passage reports STK11 functional score results from the supplement of paper PMC12338614.

± gives the uncertainty stated by the source.

First the molecules themselves.
B1: library; numbered along this chain (parent)
chain: MEVVDPQQLGMFTEGELMSVGMDTFIHRIDSTEVIYQPRRKRAKLIGKYLMGDLLGEGSYGKVKEVLDSETLCRRAVKILKKKKLRRIPNGEANVKKEIQLLRRLRHKNVIQLVDVLYNEEKQKMYMVMEYCVCGMQEMLDSVPEKRFPVCQAHGYFCQLIDGLEYLHSQGIVHKDIKPGNLLLTTGGTLKISDLGVAEALHPFAADDTCRTSQGSPAFQPPEIANGLDTFSGFKVDIWSAGVTLYNITTGLYPFEGDNIYKLFENIGKGSYAIPGDCGPPLSDLLKGMLEYEPAKRFSIRQIRQHSWFRKKHPPAEAPVPIPPSPDTKDRWRSMTVVPYLEDLHGADEDEDLFDIEDDIIYTQDFTVPGQVPEEEASHNGQRRGLPKAVCMNGTEAAQLSTKSRAEGRAPNPARKACSASSKIRRLSACKQQ

The data set covers variants of B1. Kind of data set: STK11 functional score (HeLa growth suppression), rescaled enrichment; synonymous median = 1, nonsense median = 0 (normalised score). The settings on record: with HeLa; variant type: missense. Put shortly: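 HeLa cells carrying an AAVS1 landing pad received codon-optimised STK11 libraries made by codon randomisation (POPCode), integrated by Bxb1, with three regions each transfected three times. Integrants that were BFP-negative and mCherry-positive were sorted by FACS 4–5 days after electroporation and then grown for about two weeks. Tiled amplicons from gDNA were sequenced on NextSeq at ~2 million reads per tile. The functional score is a wild-type-corrected log ratio of post- to pre-selection counts, rescaled to the synonymous and nonsense medians, merged across codons and replicate transfections, and given a bootstrapped error.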
Take MEVVDPQQLGMFTEGELMSVGMDTFIHRIDSTEVIYQPRRKRAKLIGKYLMGDLLGEGSYGKVKEVLDSETLCRRAVKILKKKKLRRIPNGEANVKKEIQLLRRLRHKNVIQLVDVLYNEEKQKMYMVMEYCVCGMQEMLDSVPEKRFPVCQAHGYFCQLIDGLEYLHSQGIVHKDIKPGNLLLTTGGTLKISDLGVAEALHPFAADDTCRTSQGSPAFQPPEIANGLDTFSGFKVDIWSAGVTLYNITTGLYPFEGDNIYKLFENIGKGSYAIPGDCGPPLSDLLKGMLEYEPAKRFSIRQIRQHSWFRKKHPPAEAPVPIPPSPDTKDRWRSMTVVPYLEDLHGADEDEDLFDIEDDIIYTQDFTVPGQVPEEEASHNGQRRGLPKAVCMNGTEAAQLSTKSRAEGRAPNEARKACSASSKIRRLSACKQQ [P413E]: the STK11 functional score is 1.59 ± 0.25.

Take MEVVDPQQLGMFTEGELMSVGMDTFIHRIDSTEVIYQPRRKRAKLIGKYLMGDLLGEGSYGKVKEVLDSETLCRRAVKILKKKKLRRIPNGEANVKKEIQLLRRLRHKNVIQLVDVLYNEEKQKMYMVMEYCVCGMQEMLDSVPEKRFPVCQAHGYFCQLIDGLEYLHSQGIVHKDIKPGNLLLTTGGTLKISDLGVAEALHPFAADDTCRTSQGSPAFQPPEIANGLDTFSGFKVDIWSAGVTLYNITTGLYPFEGDNIYKLFENIGKGSYAIPGDCGPPLSDLLKGMLEYEPAKRFSIRQIRQHSWFRKKHPPAEAPVPIPPSPDTKDRWRSMTVVPYLEDLHGADEDEDLFDIEDDIIYTQDFTVPGQVPEEEASHNGQRRGLPKAVCMNGTEAAQLSTKSRAEGRAPNDARKACSASSKIRRLSACKQQ [P413D]: the STK11 functional score worked out at 1.6 ± 0.33.

MEVVDPQQLGMFTEGELMSVGMDTFIHRIDSTEVIYQPRRKRAKLIGKYLMGDLLGEGSYGKVKEVLDSETLCRRAVKILKKKKLRRIPNGEANVKKEIQLLRRLRHKNVIQLVDVLYNEEKQKMYMVMEYCVCGMQEMLDSVPEKRFPVCQAHGYFCQLIDGLEYLHSQGIVHKDIKPGNLLLTTGGTLKISDLGVAEALHPFAADDTCRTSQGSPAFQPPEIANGLDTFSGFKVDIWSAGVTLYNITTGLYPFEGDNIYKLFENIGKGSYAIPGDCGPPLSDLLKGMLEYEPAKRFSIRQIRQHSWFRKKHPPAEAPVPIPPSPDTKDRWRSMTVVPYLEDLHGADEDEDLFDIEDDIIYTQDFTVPGQVPEEEASHNGQRRGLPKAVCMNGTEAAQLSTKSRAEGRAPNAARKACSASSKIRRLSACKQQ [P413A]: the STK11 functional score worked out at 1.5 ± 0.2.

Take MEVVDPQQLGMFTEGELMSVGMDTFIHRIDSTEVIYQPRRKRAKLIGKYLMGDLLGEGSYGKVKEVLDSETLCRRAVKILKKKKLRRIPNGEANVKKEIQLLRRLRHKNVIQLVDVLYNEEKQKMYMVMEYCVCGMQEMLDSVPEKRFPVCQAHGYFCQLIDGLEYLHSQGIVHKDIKPGNLLLTTGGTLKISDLGVAEALHPFAADDTCRTSQGSPAFQPPEIANGLDTFSGFKVDIWSAGVTLYNITTGLYPFEGDNIYKLFENIGKGSYAIPGDCGPPLSDLLKGMLEYEPAKRFSIRQIRQHSWFRKKHPPAEAPVPIPPSPDTKDRWRSMTVVPYLEDLHGADEDEDLFDIEDDIIYTQDFTVPGQVPEEEASHNGQRRGLPKAVCMNGTEAAQLSTKSRAEGRAPNGARKACSASSKIRRLSACKQQ [P413G]: the STK11 functional score stood at 1.56 ± 0.22.

With MEVVDPQQLGMFTEGELMSVGMDTFIHRIDSTEVIYQPRRKRAKLIGKYLMGDLLGEGSYGKVKEVLDSETLCRRAVKILKKKKLRRIPNGEANVKKEIQLLRRLRHKNVIQLVDVLYNEEKQKMYMVMEYCVCGMQEMLDSVPEKRFPVCQAHGYFCQLIDGLEYLHSQGIVHKDIKPGNLLLTTGGTLKISDLGVAEALHPFAADDTCRTSQGSPAFQPPEIANGLDTFSGFKVDIWSAGVTLYNITTGLYPFEGDNIYKLFENIGKGSYAIPGDCGPPLSDLLKGMLEYEPAKRFSIRQIRQHSWFRKKHPPAEAPVPIPPSPDTKDRWRSMTVVPYLEDLHGADEDEDLFDIEDDIIYTQDFTVPGQVPEEEASHNGQRRGLPKAVCMNGTEAAQLSTKSRAEGRAPNCARKACSASSKIRRLSACKQQ [P413C], the STK11 functional score is 1.17 ± 0.41.

Regarding MEVVDPQQLGMFTEGELMSVGMDTFIHRIDSTEVIYQPRRKRAKLIGKYLMGDLLGEGSYGKVKEVLDSETLCRRAVKILKKKKLRRIPNGEANVKKEIQLLRRLRHKNVIQLVDVLYNEEKQKMYMVMEYCVCGMQEMLDSVPEKRFPVCQAHGYFCQLIDGLEYLHSQGIVHKDIKPGNLLLTTGGTLKISDLGVAEALHPFAADDTCRTSQGSPAFQPPEIANGLDTFSGFKVDIWSAGVTLYNITTGLYPFEGDNIYKLFENIGKGSYAIPGDCGPPLSDLLKGMLEYEPAKRFSIRQIRQHSWFRKKHPPAEAPVPIPPSPDTKDRWRSMTVVPYLEDLHGADEDEDLFDIEDDIIYTQDFTVPGQVPEEEASHNGQRRGLPKAVCMNGTEAAQLSTKSRAEGRAPYPARKACSASSKIRRLSACKQQ [N412Y], the STK11 functional score came out at 1.55 ± 0.3.

As for MEVVDPQQLGMFTEGELMSVGMDTFIHRIDSTEVIYQPRRKRAKLIGKYLMGDLLGEGSYGKVKEVLDSETLCRRAVKILKKKKLRRIPNGEANVKKEIQLLRRLRHKNVIQLVDVLYNEEKQKMYMVMEYCVCGMQEMLDSVPEKRFPVCQAHGYFCQLIDGLEYLHSQGIVHKDIKPGNLLLTTGGTLKISDLGVAEALHPFAADDTCRTSQGSPAFQPPEIANGLDTFSGFKVDIWSAGVTLYNITTGLYPFEGDNIYKLFENIGKGSYAIPGDCGPPLSDLLKGMLEYEPAKRFSIRQIRQHSWFRKKHPPAEAPVPIPPSPDTKDRWRSMTVVPYLEDLHGADEDEDLFDIEDDIIYTQDFTVPGQVPEEEASHNGQRRGLPKAVCMNGTEAAQLSTKSRAEGRAPWPARKACSASSKIRRLSACKQQ [N412W], the STK11 functional score worked out at 0.786 ± 0.18.
